Values of other authors in publication PMC2663039.
“And” between values parts separate entries of the source, which are not always exact repeats. Identical values can stand only once.

Columns and labels:
VEGFR1 (Homo sapiens) = VEGFR1 (Homo sapiens) (UniProt P17948)
[1] = molecular target: sFlt-1 (HUVEC-derived) soluble form (Homo sapiens) (UniProt P17948)
[2] = molecular target: sFlt-1 (baculovirus-expressed) soluble form (Homo sapiens) (UniProt P17948)
VEGFR2 (Homo sapiens) = VEGFR2 (Homo sapiens) (UniProt P35968)
[3] = molecular target: sVEGFR1 (sFlt-1, HUVEC-derived) soluble isoform (Homo sapiens) (UniProt P17948)
[4] = molecular target: sVEGFR1 (sFlt-1, baculovirus-expressed) soluble isoform (Homo sapiens) (UniProt P17948)
NRP1 (Homo sapiens) [5] = molecular target: NRP1 (Homo sapiens) (UniProt O14786); assay: SPR
NRP1 (Homo sapiens) [6] = molecular target: NRP1 (Homo sapiens) (UniProt O14786); assay: SPR (BIAcore)
NRP1 (Homo sapiens) [7] = molecular target: NRP1 (Homo sapiens) (UniProt O14786); assay: cell-based Scatchard

Chain of UniProt P35968 (P35968 20-1356): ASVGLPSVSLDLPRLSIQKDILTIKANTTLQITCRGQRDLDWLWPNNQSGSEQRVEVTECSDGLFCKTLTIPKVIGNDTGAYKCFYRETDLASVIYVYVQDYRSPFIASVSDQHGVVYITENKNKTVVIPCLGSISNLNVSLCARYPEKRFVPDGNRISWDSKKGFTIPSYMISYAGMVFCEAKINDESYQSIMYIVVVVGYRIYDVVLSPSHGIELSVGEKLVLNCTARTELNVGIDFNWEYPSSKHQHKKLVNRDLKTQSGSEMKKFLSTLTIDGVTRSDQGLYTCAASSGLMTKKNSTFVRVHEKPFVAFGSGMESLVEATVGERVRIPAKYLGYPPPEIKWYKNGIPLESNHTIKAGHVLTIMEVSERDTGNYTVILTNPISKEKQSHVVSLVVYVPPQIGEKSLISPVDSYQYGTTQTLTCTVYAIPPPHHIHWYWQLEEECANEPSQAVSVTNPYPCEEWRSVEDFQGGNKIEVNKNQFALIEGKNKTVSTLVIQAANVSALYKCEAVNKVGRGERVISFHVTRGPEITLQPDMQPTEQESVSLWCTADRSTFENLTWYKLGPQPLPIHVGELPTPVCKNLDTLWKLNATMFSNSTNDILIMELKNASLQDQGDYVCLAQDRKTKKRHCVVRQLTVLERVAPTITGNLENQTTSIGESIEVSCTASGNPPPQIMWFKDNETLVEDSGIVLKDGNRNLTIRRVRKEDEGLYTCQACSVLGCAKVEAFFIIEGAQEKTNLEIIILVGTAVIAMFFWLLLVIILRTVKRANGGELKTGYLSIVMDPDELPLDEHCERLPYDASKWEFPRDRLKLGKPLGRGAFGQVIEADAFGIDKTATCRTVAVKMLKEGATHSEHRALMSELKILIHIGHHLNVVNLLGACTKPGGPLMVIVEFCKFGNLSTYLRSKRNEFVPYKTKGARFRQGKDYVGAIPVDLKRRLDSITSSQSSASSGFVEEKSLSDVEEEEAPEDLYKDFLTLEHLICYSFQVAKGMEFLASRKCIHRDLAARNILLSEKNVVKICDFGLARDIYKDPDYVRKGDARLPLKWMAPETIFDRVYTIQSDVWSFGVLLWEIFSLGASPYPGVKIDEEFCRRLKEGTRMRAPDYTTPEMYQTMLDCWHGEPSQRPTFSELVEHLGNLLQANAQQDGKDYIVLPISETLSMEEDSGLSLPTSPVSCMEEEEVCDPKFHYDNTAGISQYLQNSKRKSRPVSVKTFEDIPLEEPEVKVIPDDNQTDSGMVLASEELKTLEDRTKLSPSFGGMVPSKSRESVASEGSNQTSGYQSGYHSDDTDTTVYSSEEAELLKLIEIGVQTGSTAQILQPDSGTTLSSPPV

Which Kd (VEGFR1 (Homo sapiens)) does the source give for VEGF (from UniProt P15692) here?
The Kd was 0.0333 nM.

And the Kd [1]?
Its Kd is 0.01 nM.

And the Kd [2]?
Its Kd is 0.02 nM.

And the Kd (VEGFR2 (Homo sapiens))?
The Kd was 0.1 nM.

What about the Kd [3] of the same substance?
Its Kd is 0.01 nM.

And the Kd [4]?
Its Kd is 0.02 nM.

Which Kd (NRP1 (Homo sapiens) [5]) does the source give for VEGF121 VEGF121 (from UniProt P15692) here?
Its Kd is 220 nM.

For “VEGF165 VEGF165 isoform (from UniProt P15692)”, which Kd (NRP1 (Homo sapiens) [6]) is on record?
Its Kd is 25 nM.

What about the Kd (NRP1 (Homo sapiens) [7]) of the same substance?
The Kd was 0.2 nM and 0.32 nM.

For Flt-1 ECD (from UniProt P17948), which Kd (NRP1 (Homo sapiens) [5]) is on record?
Its Kd is 1.8 nM.

With VEGF165 VEGF165 (from UniProt P15692) as the substance, how does the Kd (NRP1 (Homo sapiens) [5]) read?
The Kd was 120 nM.
